What was measured:
[1] = molecular target: T1, partial protein of human LGR4 (amino acids 311 to 577) (human, UniProt Q9BXB1 311-577); experiment: Western blot of E. coli lysate expressing the partial protein
T1 construct: Run as crude E. coli culture lysate, denatured, on SDS-PAGE and Western blot; also called LGR4 partial protein; partial protein of LGR4; not shown: N-terminal Trx-, S- and His-tags from pET32b vector; C-terminal His-tag from pET32b vector
T1 sequence: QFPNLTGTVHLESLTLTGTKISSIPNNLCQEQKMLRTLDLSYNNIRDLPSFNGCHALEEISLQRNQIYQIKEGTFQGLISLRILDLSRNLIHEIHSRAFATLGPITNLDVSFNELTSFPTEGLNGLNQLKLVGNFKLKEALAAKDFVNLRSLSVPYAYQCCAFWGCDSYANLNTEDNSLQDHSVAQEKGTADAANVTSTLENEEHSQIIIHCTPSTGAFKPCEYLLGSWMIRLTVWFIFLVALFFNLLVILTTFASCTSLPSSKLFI
Procedure: (§1) After electrophoresis, the proteins were transferred onto a PVDF membrane. Skimmed milk dissolved at a concentration of 5% (w/v) in TBS-T was used to block the membrane at room temperature for 30 minutes, and the membrane was washed twice with TBS-T. Among the monoclonal antibodies obtained in Example 1. (7), Mu2C15 was diluted to 1 μg/mL with TBS-T and reacted with the membrane for 1 hour at room temperature. After washing three times with TBS-T, anti-mouse IgG polyclonal antibody-HRP label was diluted 100,000-fold with TBS-T for use as a secondary antibody. This dilution was reacted with the membrane at room temperature for 30 minutes, followed by washing three times with TBS-T. The membrane was soaked in Immobilon and then wrapped, followed by signal detection with LAS-3000 (FIG. 15b)

[2] = molecular target: T2, partial protein of human LGR5 (amino acids 319 to 563) (human, UniProt O75473 319-563); experiment: as above
T2 construct: Run as crude E. coli culture lysate, denatured, on SDS-PAGE and Western blot; also called LGR5 partial protein; partial protein of LGR5; not shown: N-terminal Trx-, S- and His-tags from pET32a vector; C-terminal His-tag from pET32a vector
T2 sequence: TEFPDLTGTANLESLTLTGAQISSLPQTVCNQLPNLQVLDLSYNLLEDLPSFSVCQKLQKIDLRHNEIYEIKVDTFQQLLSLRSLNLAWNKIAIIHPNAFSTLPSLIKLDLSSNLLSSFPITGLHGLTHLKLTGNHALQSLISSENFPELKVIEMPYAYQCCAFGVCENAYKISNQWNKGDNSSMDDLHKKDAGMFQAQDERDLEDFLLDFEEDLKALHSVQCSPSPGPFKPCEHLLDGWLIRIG
Procedure: as §1

binding result [1]: no binding (tested: 1 µg/mL)
binding result [2]: no binding (tested: 1 µg/mL)
B1: Mu2C15 antibody (monoclonal antibody produced by Mouse-Mouse hybridoma Mu2C15) (antibody, V domains shown)
VH: QVQLQQSAAELARPGASVKMSCKASGYTFTTYTMHWVKQRPGQGLEWIGYINPNNGYTEFNQKFKDKTTLTADKSSSTAYMQLSSLTSEDSAVYYCARRDYYRFSTGFAYWGQGTLVTVSA
VL: DVVMTQTPLSLPVSLGDQASISCRSSQSLVHTNGNTYLHWYLQKPGQSPKLLIYKVSNRFSGVPDRFSGSGSGTDFTLKISRVEAEDLGVYFCSQSTHVPYTFGGGTKLEIK
notes: Mouse hybridoma antibody; Used as culture supernatant or Protein G purified, and unlabeled when immobilized in the sandwich ELISA; also called clone No. Mu2C15; anti-LGR6 antibody

— patent US20160116478A1 (ORDER MADE MEDICAL RESEARCH, published 2016)
